Where two headings read alike, the source gives them in different places.
How the values were obtained:
Ngb = Ngb reductase activity; format: biochemical, murine; details: 37 °C; 5 μM Ngb; anaerobic
From the text: (§1) Reagents were purchased from Sigma-Aldrich Chemical Co (St Louis, MO, USA) unless otherwise stated. DNA primers were synthesized at the University of Cincinnati Medical Center DNA facility. Praxair (Bethlehem, PA, USA) was the supplier of 99.993% O2, 99.999% CO, and 99.98% N2. Bovine liver catalase (260,000 U/ml) was obtained from Roche Applied Science. Recombinant rat cytochrome b5 (soluble form) and murine Ngb were expressed in E. coli and purified essentially as described ([10], [70]). NADH purity (≥95%) was assessed by the ratio of the 340 to 260 nm absorbance with a value of 0.437 equal to 100% reduced.

[1] = set-up: method as in PMID 7821669; details: cited from earlier work
TMAO reductase activity = format: biochemical; details: 37 °C; 400 mM TMAO; anaerobic
Method: (§3) NADH oxidase activity was followed spectrophotometrically at 340 nm in a 1.0-ml cuvette containing 90 mM Tris chloride buffer, pH 8.2, 100 μM NADH, 200 μM O2, 0.1 μM FAD, 100 μg/ml BSA, and 0.3 mM EDTA and incubated at 37 °C. […] TMAO reductase activity was assayed by following the absorbance decrease at 340 nm in a 1.0-ml anaerobic reaction containing 12 U Aspergillus niger glucose oxidase, 5 mM glucose, 260 U catalase, 400 mM TMAO, 100 μM NADH, 0.1 μM FAD, 100 μg/ml BSA, and 0.3 mM EDTA in 90 mM Tris chloride pH 8.2 and incubated at 37 °C. […] Methyl viologen reductase activity was assayed by following the formation of the blue cation radical at 603 nm and by applying an extinction coefficient of 13,300 M^−1 cm^−1 in a 1.0-ml anaerobic reaction buffered with 10 mM potassium phosphate, pH 7.0, and containing 12 U glucose oxidase, 5 mM glucose, 260 U catalase, 100 μM NADH, 0.1 μM FAD, 100 μg/ml BSA, 0.3 mM EDTA, and 200 mM sodium chloride and incubated at 37 °C. NO reductase activity was assayed amperometrically at 37 °C in a 1.0-ml anaerobic reaction containing 2 μM NO, 100 μM NADH, 0.1 μM FAD, 12 U glucose oxidase, 5 mM glucose, 260 U catalase, 100 μg/ml BSA, and 0.3 mM EDTA buffered with 10 mM potassium phosphate pH 7.0. CO effects were tested at a final concentration of 50 μM as diluted from a 1 mM stock in water. […]

NADH oxidase activity = format: biochemical; details: 37 °C; relative to heme content
Method: as §3

[2] = set-up: method as in PMID 10777548, PMID 10922365; details: cited from earlier work
[3] = NO reductase activity (anaerobic); format: biochemical
Method: as §3

E. coli flavoHb-NOD [4] = system: E. coli flavoHb-NOD
Method: (§2) NOD activity was measured amperometrically in 100 mM phosphate buffer, pH 7.0, containing 0.3 mM EDTA, 100 μg/ml bovine serum albumin (BSA) (Fraction V), 100 μM NADH, 0.1 μM FAD with NO, O2, and N2 mixtures added as described ([4], [72]). NADH oxidase activity was followed spectrophotometrically at 340 nm in a 1.0-ml cuvette containing 90 mM Tris chloride buffer, pH 8.2, 100 μM NADH, 200 μM O2, 0.1 μM FAD, 100 μg/ml BSA, and 0.3 mM EDTA and incubated at 37 °C. Cytochrome b5 reductase activity was assayed at 37 °C by following the rate of absorbance increase at 555 nm in a 1.0-ml reaction buffered with 90 mM Tris chloride, pH 8.2, and containing 10 μM ferric cytochrome b5, 200 μM O2, 20 μM NADH, 0.1 μM FAD, 100 μg/ml BSA, and 0.3 mM EDTA. TMAO reductase activity was assayed by following the absorbance decrease at 340 nm in a 1.0-ml anaerobic reaction containing 12 U Aspergillus niger glucose oxidase, 5 mM glucose, 260 U catalase, 400 mM TMAO, 100 μM NADH, 0.1 μM FAD, 100 μg/ml BSA, and 0.3 mM EDTA in 90 mM Tris chloride pH 8.2 and incubated at 37 °C. Ngb reductase activity was assayed by following the absorbance increase at 424 nm in a 1.0-ml anaerobic reaction containing 12 U glucose oxidase, 5 mM glucose, 260 U catalase, 5 μM Ngb, 50 μM NADH, 0.1 μM FAD, 100 μg/ml BSA, and 0.3 mM EDTA in 90 mM Tris chloride buffer, pH 8.2, and incubated at 37 °C. Methyl viologen reductase activity was assayed by following the formation of the blue cation radical at 603 nm and by applying an extinction coefficient of 13,300 M^−1 cm^−1 in a 1.0-ml anaerobic reaction buffered with 10 mM potassium phosphate, pH 7.0, and containing 12 U glucose oxidase, 5 mM glucose, 260 U catalase, 100 μM NADH, 0.1 μM FAD, 100 μg/ml BSA, 0.3 mM EDTA, and 200 mM sodium chloride and incubated at 37 °C. NO reductase activity was assayed amperometrically at 37 °C in a 1.0-ml anaerobic reaction containing 2 μM NO, 100 μM NADH, 0.1 μM FAD, 12 U glucose oxidase, 5 mM glucose, 260 U catalase, 100 μg/ml BSA, and 0.3 mM EDTA buffered with 10 mM potassium phosphate pH 7.0. CO effects were tested at a final concentration of 50 μM as diluted from a 1 mM stock in water. All activities are reported relative to the heme content of flavoHb.

E. coli flavoHb-NOD [5] = molecular target: T1, E. coli flavoHb-NOD (Escherichia coli, UniProt P24232); details: read-out: theoretical Km(O2) (Vmax/k'O2); cited from earlier work
E. coli flavoHb-NOD [6] = details: entry of O2 into the LT, value assumed for fitting, cited from earlier work
E. coli flavoHb-NOD [7] = molecular target: T1, E. coli flavoHb-NOD; format: biochemical; set-up: made in house; host or cells: E. coli hmp deletion strain AG103 carrying pUC19hmp
From the text: We have formulated a steady-state velocity equation for the catalytic cycle with the activating trigger step (KT) (Equation 1).(1) v= Vmax(a) where a=([NO]^2[O2]^2/K1K2K3KTK4)/(1+([O2]/K1)+([O2]^2/K1K2)+(([O2]^2[NO])/K1K2K3)+(([O2]^2[NO])/K1K2K3KT)+(([O2]^2[NO]^2)/K1K2K3KTK4))
(2) v= Vmax(a)(b) where b=[NO]/(K3+([NO](1+((K2/[O2])(1+([NO]/Ki(NO)))))))
In addition, we have introduced a factor and equilibrium constant Ka(O2) for rare situations in which O2 causes an additional NO-independent activation of catalysis possibly by occupying unique binding sites or cavities (Equation 5).
as §2
Rate constants were estimated from the model kinetic equation using Python programming with successive approximations to optimize fits with varying NO and O2 concentrations. Vmax, K1, K2, KT, and Kii(NO) values were treated as independent variables for a given flavoHb while allowing K3, K4, and Ki(NO) to vary over limited ranges with varying O2 concentration. Kii(NO) was estimated from NO inhibition at saturating O2 concentrations.

[8] = system: flavoHb heme (Fe^2+ / Fe^3+); details: cited from earlier work
ferric cytochrome b5 = assay: Cytochrome b5 reductase activity; format: biochemical, rat; details: 37 °C; 10 μM ferric cytochrome b5
From the text: as §1

B1: WT: wild-type E. coli flavohemoglobin (flavoHb), an NO dioxygenase (NOD) (protein, UniProt P24232 1-396, looked up)
Flavohemoprotein: MLDAQTIATVKATIPLLVETGPKLTAHFYDRMFTHNPELKEIFNMSNQRNGDQREALFNAIAAYASNIENLPALLPAVEKIAQKHTSFQIKPEQYNIVGEHLLATLDEMFSPGQEVLDAWGKAYGVLANVFINREAEIYNENASKAGGWEGTRDFRIVAKTPRSALITSFELEPVDGGAVAEYRPGQYLGVWLKPEGFPHQEIRQYSLTRKPDGKGYRIAVKREEGGQVSNWLHNHANVGDVVKLVAPAGDFFMAVADDTPVTLISAGVGQTPMLAMLDTLAKAGHTAQVNWFHAAENGDVHAFADEVKELGQSLPRFTAHTWYRQPSEADRAKGQFDSEGLMDLSKLEGAFSDPTMQFYLCGPVGFMQFTAKQLVDLGVKQENIHYECFGPHKVL
Ngb
  Ngb reductase activity: 0.20 s⁻¹
[1]
  FAD/FADH2 potential (E^0): < −0.15 V
  nominal heme mid-point potential: −0.125 V
TMAO reductase activity
  TMAO reductase activity: 0.21 s⁻¹
NADH oxidase activity
  NADH oxidase activity: 0.27 s⁻¹
[2]
  NO elimination via reduction: ≤ 0.1 s⁻¹
  Vmax for Fe^2+NO reduction: 0.1 s⁻¹
[3]; 37 °C, 2 μM NO, anaerobic
  NO reductase activity: 0.19 s⁻¹
[3]; with NO elimination via reduction
  time for 90% reversal in the steady state: 23 s
E. coli flavoHb-NOD [4]; 20 °C
  Δv/Δ[NADH]: 36 s⁻¹ µM⁻¹
E. coli flavoHb-NOD [4]; 20 °C, 130 nM NO
  Δv/Δ[NADH]: 30 s⁻¹ µM⁻¹
E. coli flavoHb-NOD [4]; 37 °C
  Δv/Δ[NADH]: 59 s⁻¹ µM⁻¹
E. coli flavoHb-NOD [4]; 37 °C, 130 nM NO
  Δv/Δ[NADH]: 59 s⁻¹ µM⁻¹
E. coli flavoHb-NOD [5]
  Km: ~2 µM
E. coli flavoHb-NOD [6]; 20 °C
  K1: 2 (2) Micromolar
E. coli flavoHb-NOD [6]; 37 °C
  K1: 2 (2) Micromolar
E. coli flavoHb-NOD [7]
  Vmax/K3: 2.3e+09 M⁻¹ s⁻¹
  bimolecular rate constant of ferric–superoxide complex with internalized NO: 10^10 M^−1 s^−1
  k'NOD estimated from the Vmax/K4 ratio: 1 to 2 × 10^10 M^−1 s^−1
  velocity of NOD activity: 8 s⁻¹
E. coli flavoHb-NOD [7]; read-out: Ki(NO) for NO competition with O2 for LT entry
  Ki: 0.3 to 1.2 µM
[8]; Fe^2+ NO dissociation
  k: 0.0002 (4) s^−1
[8]; Fe^3+ NO dissociation
  k: ∼4000 (4) s^−1
Ferric cytochrome b5
  cytochrome b5 reductase activity: 0.14 s⁻¹

— article PMC7948479, “Allostery in the nitric oxide dioxygenase mechanism of flavohemoglobin” (The Journal of Biological Chemistry, 2020)
